Data reported in patent US20240109972A1, “ANTIBODY AND TAXANE COMBINATION THERAPY” (Genmab A/S, priority 2020, published 2024).

Experiment: GEN1046 in combination with docetaxel in metastatic NSCLC subjects, adverse effects
Format: in vivo, human
Procedure: Docetaxel was administered at a dose of 55 mg/m^2 or 75 mg/m^2 depending on the number of prior Dose Limiting Toxicities observed. The maximum tested dose of docetaxel was be 75 mg/m^2.
Subjects with a histological or cytological diagnosis of non-squamous NSCLC must not have an EGFR-sensitizing mutation and/or ALK translocation/ROS1 rearrangement. EGFR sensitizing mutations are those mutations that are amenable to treatment with an approved TKI. Documentation of EGFR and ALK status should be available per local assessment.

GEN1046: PD-L1×4-1BB bispecific antibody: PD-L1-547-FEAL combined with CD137-009-HC7LC2-FEAR (SEQ ID NOs: 1, 5, 21, 19; 8, 12, 22, 20)
3: Anemia Grade 3, GEN1046-related (GEN1046 + 55 mg/m^2 Docetaxel) | Total treated subjects with related TEAEs Grade 3, GEN1046-related (GEN1046 + 55 mg/m^2 Docetaxel)
2: Fatigue Grade 2, GEN1046-related (GEN1046 + 55 mg/m^2 Docetaxel)
manageable and well tolerated: Tolerability of the combination (GEN1046 100 mg with Docetaxel 55 or 75 mg/m^2)
4: Total treated subjects with related TEAEs Grade 1, GEN1046-related (GEN1046 + 55 mg/m^2 Docetaxel) | Total treated subjects with related TEAEs Grade 2, GEN1046-related (GEN1046 + 55 mg/m^2 Docetaxel)
1: Alopecia Grade 1, GEN1046-related (GEN1046 + 55 mg/m^2 Docetaxel) | Blood alkaline phosphatase increase Grade 2, GEN1046-related (GEN1046 + 55 mg/m^2 Docetaxel) | Decreased appetite Grade 2, GEN1046-related (GEN1046 + 55 mg/m^2 Docetaxel) | Dyspnea Grade 2, GEN1046-related (GEN1046 + 55 mg/m^2 Docetaxel) | Fatigue Grade 3, GEN1046-related (GEN1046 + 55 mg/m^2 Docetaxel) | Hypokalemia Grade 2, GEN1046-related (GEN1046 + 55 mg/m^2 Docetaxel) | Hypomagnesaemia Grade 1, GEN1046-related (GEN1046 + 55 mg/m^2 Docetaxel) | Nausea Grade 1, GEN1046-related (GEN1046 + 55 mg/m^2 Docetaxel) | Neutrophil count decreased Grade 3, GEN1046-related (GEN1046 + 55 mg/m^2 Docetaxel) | Pyrexia Grade 1, GEN1046-related (GEN1046 + 55 mg/m^2 Docetaxel) | Sinus tachycardia Grade 2, GEN1046-related (GEN1046 + 55 mg/m^2 Docetaxel) | Vaginal hemorrhage Grade 1, GEN1046-related (GEN1046 + 55 mg/m^2 Docetaxel) | Vomiting Grade 2, GEN1046-related (GEN1046 + 55 mg/m^2 Docetaxel) | Amylase increased Grade 1, GEN1046-related (GEN1046 + 75 mg/m^2 Docetaxel) | Anemia Grade 2, GEN1046-related (GEN1046 + 75 mg/m^2 Docetaxel)
0: Alopecia Grade 2, GEN1046-related (GEN1046 + 55 mg/m^2 Docetaxel) | Alopecia Grade 3, GEN1046-related (GEN1046 + 55 mg/m^2 Docetaxel) | Alopecia Grade 4, GEN1046-related (GEN1046 + 55 mg/m^2 Docetaxel) | Alopecia Grade 5, GEN1046-related (GEN1046 + 55 mg/m^2 Docetaxel) | Anemia Grade 1, GEN1046-related (GEN1046 + 55 mg/m^2 Docetaxel) | Anemia Grade 2, GEN1046-related (GEN1046 + 55 mg/m^2 Docetaxel) | Anemia Grade 4, GEN1046-related (GEN1046 + 55 mg/m^2 Docetaxel) | Anemia Grade 5, GEN1046-related (GEN1046 + 55 mg/m^2 Docetaxel) | Blood alkaline phosphatase increase Grade 1, GEN1046-related (GEN1046 + 55 mg/m^2 Docetaxel) | Blood alkaline phosphatase increase Grade 3, GEN1046-related (GEN1046 + 55 mg/m^2 Docetaxel) | Blood alkaline phosphatase increase Grade 4, GEN1046-related (GEN1046 + 55 mg/m^2 Docetaxel) | Blood alkaline phosphatase increase Grade 5, GEN1046-related (GEN1046 + 55 mg/m^2 Docetaxel) | Decreased appetite Grade 1, GEN1046-related (GEN1046 + 55 mg/m^2 Docetaxel) | Decreased appetite Grade 3, GEN1046-related (GEN1046 + 55 mg/m^2 Docetaxel) | Decreased appetite Grade 4, GEN1046-related (GEN1046 + 55 mg/m^2 Docetaxel) | Decreased appetite Grade 5, GEN1046-related (GEN1046 + 55 mg/m^2 Docetaxel) | Dyspnea Grade 1, GEN1046-related (GEN1046 + 55 mg/m^2 Docetaxel) | Dyspnea Grade 3, GEN1046-related (GEN1046 + 55 mg/m^2 Docetaxel) | Dyspnea Grade 4, GEN1046-related (GEN1046 + 55 mg/m^2 Docetaxel) | Dyspnea Grade 5, GEN1046-related (GEN1046 + 55 mg/m^2 Docetaxel) | Fatigue Grade 1, GEN1046-related (GEN1046 + 55 mg/m^2 Docetaxel) | Fatigue Grade 4, GEN1046-related (GEN1046 + 55 mg/m^2 Docetaxel) | Fatigue Grade 5, GEN1046-related (GEN1046 + 55 mg/m^2 Docetaxel) | Hypokalemia Grade 1, GEN1046-related (GEN1046 + 55 mg/m^2 Docetaxel) | Hypokalemia Grade 3, GEN1046-related (GEN1046 + 55 mg/m^2 Docetaxel) | Hypokalemia Grade 4, GEN1046-related (GEN1046 + 55 mg/m^2 Docetaxel) | Hypokalemia Grade 5, GEN1046-related (GEN1046 + 55 mg/m^2 Docetaxel) | Hypomagnesaemia Grade 2, GEN1046-related (GEN1046 + 55 mg/m^2 Docetaxel) | Hypomagnesaemia Grade 3, GEN1046-related (GEN1046 + 55 mg/m^2 Docetaxel) | Hypomagnesaemia Grade 4, GEN1046-related (GEN1046 + 55 mg/m^2 Docetaxel) | Hypomagnesaemia Grade 5, GEN1046-related (GEN1046 + 55 mg/m^2 Docetaxel) | Nausea Grade 2, GEN1046-related (GEN1046 + 55 mg/m^2 Docetaxel) | Nausea Grade 3, GEN1046-related (GEN1046 + 55 mg/m^2 Docetaxel) | Nausea Grade 4, GEN1046-related (GEN1046 + 55 mg/m^2 Docetaxel) | Nausea Grade 5, GEN1046-related (GEN1046 + 55 mg/m^2 Docetaxel) | Neutrophil count decreased Grade 1, GEN1046-related (GEN1046 + 55 mg/m^2 Docetaxel) | Neutrophil count decreased Grade 2, GEN1046-related (GEN1046 + 55 mg/m^2 Docetaxel) | Neutrophil count decreased Grade 4, GEN1046-related (GEN1046 + 55 mg/m^2 Docetaxel) | Neutrophil count decreased Grade 5, GEN1046-related (GEN1046 + 55 mg/m^2 Docetaxel) | Pyrexia Grade 2, GEN1046-related (GEN1046 + 55 mg/m^2 Docetaxel) | Pyrexia Grade 3, GEN1046-related (GEN1046 + 55 mg/m^2 Docetaxel) | Pyrexia Grade 4, GEN1046-related (GEN1046 + 55 mg/m^2 Docetaxel) | Pyrexia Grade 5, GEN1046-related (GEN1046 + 55 mg/m^2 Docetaxel) | Sinus tachycardia Grade 1, GEN1046-related (GEN1046 + 55 mg/m^2 Docetaxel) | Sinus tachycardia Grade 3, GEN1046-related (GEN1046 + 55 mg/m^2 Docetaxel) | Sinus tachycardia Grade 4, GEN1046-related (GEN1046 + 55 mg/m^2 Docetaxel) | Sinus tachycardia Grade 5, GEN1046-related (GEN1046 + 55 mg/m^2 Docetaxel) | Total treated subjects with related TEAEs Grade 4, GEN1046-related (GEN1046 + 55 mg/m^2 Docetaxel) | Total treated subjects with related TEAEs Grade 5, GEN1046-related (GEN1046 + 55 mg/m^2 Docetaxel) | Vaginal hemorrhage Grade 2, GEN1046-related (GEN1046 + 55 mg/m^2 Docetaxel) | Vaginal hemorrhage Grade 3, GEN1046-related (GEN1046 + 55 mg/m^2 Docetaxel) | Vaginal hemorrhage Grade 4, GEN1046-related (GEN1046 + 55 mg/m^2 Docetaxel) | Vaginal hemorrhage Grade 5, GEN1046-related (GEN1046 + 55 mg/m^2 Docetaxel) | Vomiting Grade 1, GEN1046-related (GEN1046 + 55 mg/m^2 Docetaxel) | Vomiting Grade 3, GEN1046-related (GEN1046 + 55 mg/m^2 Docetaxel) | Vomiting Grade 4, GEN1046-related (GEN1046 + 55 mg/m^2 Docetaxel) | Vomiting Grade 5, GEN1046-related (GEN1046 + 55 mg/m^2 Docetaxel) | Amylase increased Grade 2, GEN1046-related (GEN1046 + 75 mg/m^2 Docetaxel) | Amylase increased Grade 3, GEN1046-related (GEN1046 + 75 mg/m^2 Docetaxel) | Amylase increased Grade 4, GEN1046-related (GEN1046 + 75 mg/m^2 Docetaxel) | Amylase increased Grade 5, GEN1046-related (GEN1046 + 75 mg/m^2 Docetaxel) | Anemia Grade 1, GEN1046-related (GEN1046 + 75 mg/m^2 Docetaxel) | Anemia Grade 3, GEN1046-related (GEN1046 + 75 mg/m^2 Docetaxel) | Anemia Grade 4, GEN1046-related (GEN1046 + 75 mg/m^2 Docetaxel)
